Experimental data: the supplement of paper PMC9732359
± gives the uncertainty stated by the source.

Test: protein stability index of a GFP-peptide fusion (yeast GPS) (PSI 1-4); higher = more stable; sorted into four equal gates, so the index is relative within each strain
Summary of the method: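 The protein stability index of a peptide was calculated by multiplying its read frequency in each gate by that gate's number and adding the products. The peptides were tiled 17-residue stretches of yeast proteins, fused downstream of GFP on a Cherry-expressing plasmid and carried in yeast as a pooled library. Mid-log cultures in leucine-free medium were sorted into four equal gates by GFP/Cherry ratio, and each gate's plasmids were PCR-amplified and Illumina-sequenced.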

Sequence | protein stability index (doa10∆) | protein stability index (pdr5∆) | protein stability index (ubr1∆) | protein stability index (san1∆)
KEFKGIKVTVQLKIQNR [RPL12A] | 1.3 ± 0.08 | 1.62 ± 0.071 | 2.4 ± 0.09 | –
LRSRLQQQQQQQQQTSP [SNF5] | 2.58 ± 0.057 | 2.95 ± 0.058 | 2.78 ± 0.049 | 2.76 ± 0.05
GIEHFDIPPPAIMKPYY [RPO31] | 2.69 ± 0.15 | 2.92 ± 0.084 | 2.91 ± 0.099 | 3.34 ± 0.13
KMLNEFVKKTSEEIDSL [SMC2] | 2.61 ± 0.099 | 3.19 ± 0.15 | 3.09 ± 0.12 | –
SMVYSNVGELIEKNVME [RRP4] | 2.06 ± 0.052 | 2.66 ± 0.053 | 2.03 ± 0.048 | 2.55 ± 0.056
RSMLTVVRNMLALTTLS [YCG1] | 1.91 ± 0.061 | 1.9 ± 0.067 | 2.49 ± 0.063 | 2.29 ± 0.065
VRPSISFNESQRGEDDL [RPO21] | 2.49 ± 0.078 | 2.81 ± 0.088 | 2.68 ± 0.083 | 2.75 ± 0.093
LDIKRVGSENVECTISI [SNF12] | 2.27 ± 0.067 | 2.78 ± 0.066 | 2.81 ± 0.065 | 2.56 ± 0.056
EYRDLYTNSVELRSLSK [YMR129W/POM152] | 3.18 ± 0.082 | 3.27 ± 0.072 | 2.79 ± 0.29 | 3.24 ± 0.065
DPRNLVNQTGSTKKDTV [YCG1] | 2.9 ± 0.097 | 3.15 ± 0.084 | 2.86 ± 0.039 | 2.53 ± 0.075
SSVTSDSMKYTISSLFV [RPC82] | 1.93 ± 0.046 | 2.3 ± 0.043 | 2.16 ± 0.042 | 2.14 ± 0.06
SDWNPQADLQAMDRAHR [ISW2] | 2.93 ± 0.16 | 3.23 ± 0.12 | 3.39 ± 0.18 | 3.14 ± 0.11
CFKPMSLTSKRLISQSL [RIP1] | 2.64 ± 0.24 | 2.42 ± 0.16 | 2.1 ± 0.049 | –
ALLIAGHDADDGYQLFH [PUP2] | 2.29 ± 0.16 | 2.86 ± 0.17 | 2.66 ± 0.13 | 3.22 ± 0.12
TYSFIDNDRFNVVGKLI [YML103C/NUP188] | 2.34 ± 0.058 | 2.27 ± 0.06 | 2.16 ± 0.04 | 2.07 ± 0.072
DTVDRLIIKYQKYWESM [GAL11] | 2.73 ± 0.053 | 2.83 ± 0.065 | 3.02 ± 0.062 | 2.62 ± 0.053
RLTFKPWVVYLQILAML [YMR129W/POM152] | 1.23 ± 0.07 | 1.22 ± 0.06 | 1.05 ± 0.049 | 1.1 ± 0.11
QVIKNEVCAKMPNIELY [SSN2] | 2.83 ± 0.076 | 2.81 ± 0.058 | 2.35 ± 0.06 | 2.7 ± 0.074
AGLEITSDNLLTITKAA [RPP1B] | 2.42 ± 0.051 | 2.55 ± 0.048 | 2.65 ± 0.046 | 2.78 ± 0.064
NIKKKDTKDALSTRELA [RPC53] | – | – | 2.7 ± 0.29 | –
LKFAVQVDKVTKEKVNG [RPL26A] | 3.23 ± 0.21 | 3.4 ± 0.16 | 3.01 ± 0.069 | 2.71 ± 0.11
FEIIDEASKKSAVKPRP [FAS1] | 3.21 ± 0.13 | 3.28 ± 0.14 | 3.3 ± 0.066 | 3.45 ± 0.064
IFNSGKMIILDKLLKRL [ISW2] | 2.17 ± 0.077 | 1.93 ± 0.055 | 2.17 ± 0.046 | 1.55 ± 0.1
GKLWKDVKARIAAGDGD [QCR9] | 2.3 ± 0.11 | 2.58 ± 0.16 | 2.37 ± 0.098 | 2.17 ± 0.07
AYFMVGAMGLLSSAGAK [RIP1] | 1.99 ± 0.11 | 2.51 ± 0.11 | 2.34 ± 0.091 | 2.06 ± 0.18

Sequence | protein stability index (doa10∆) | protein stability index (pdr5∆) | protein stability index (ubr1∆) | protein stability index (san1∆)
DGDASKPAFSFGAKPDE [YJL041W/NSP1] | 3.32 ± 0.058 | 3.25 ± 0.058 | 3.42 ± 0.043 | 3.15 ± 0.036
LRLRISRKRNEEEDAKN [RPL31A] | 1.72 ± 0.17 | 2.39 ± 0.17 | 2.32 ± 0.14 | 3.35 ± 0.16
HSQFMKDLKDDSIYTKP [YJL039C/NUP192] | 2.83 ± 0.045 | 3.02 ± 0.05 | 2.93 ± 0.038 | 3.02 ± 0.044
SGTSSDPDTKKVKESPA [YIL149C/MLP2] | 3.21 ± 0.059 | 3.2 ± 0.046 | 3.23 ± 0.061 | 3.14 ± 0.038
SRILYKAIRGMVSHKTA [RPL16B] | 1.26 ± 0.057 | 1.2 ± 0.066 | 1.25 ± 0.063 | 1.22 ± 0.16
SVTVSQGNYVTEDIREG [YMR129W/POM152] | 2.82 ± 0.061 | 2.91 ± 0.064 | 2.85 ± 0.05 | 2.87 ± 0.061
IAAIIGRLNTLVISLAA [IRR1] | 2.1 ± 0.035 | 1.99 ± 0.036 | 1.77 ± 0.03 | 2.31 ± 0.052
SIHVNRVERSSRSTDNF [RRI1] | 3.32 ± 0.074 | 3.18 ± 0.069 | 3.02 ± 0.051 | 3.03 ± 0.058
NHTAHNQTRKAHRNGIK [RPL29] | 1.88 ± 0.047 | 2.56 ± 0.059 | 2.57 ± 0.052 | 2.32 ± 0.06
TSVQEKELMLQSKKLIE [YIL149C/MLP2] | 2.65 ± 0.089 | 2.94 ± 0.096 | 2.91 ± 0.063 | 2.84 ± 0.084
KNDLFVIWSEDNDEKLI [RPO21] | 2.83 ± 0.077 | 2.55 ± 0.096 | 2.44 ± 0.089 | 3.1 ± 0.045
TGAGKGSIGAEVLQGLL [FAS2] | 3.48 ± 0.088 | 3.56 ± 0.063 | 2.96 ± 0.067 | 3.47 ± 0.066
HAQLLLSDRITGNFIIP [PRP8] | 2.09 ± 0.061 | 2.52 ± 0.071 | 2.71 ± 0.043 | 2.37 ± 0.071
VIDLEKIKFDESSKLMT [BRR2] | 1.27 ± 0.1 | 1.43 ± 0.086 | 1.32 ± 0.053 | 1.18 ± 0.25
VSKVQKRKVLELKKKRK [SRP72] | 2.78 ± 0.1 | 2.57 ± 0.13 | 2.48 ± 0.054 | 2.24 ± 0.1
ANNDINSLLSNFNDIPP [YDL088C/ASM4] | 2.56 ± 0.097 | 2.87 ± 0.18 | 3.13 ± 0.14 | 2.67 ± 0.27
RSDSYMLHKVLENKADP [RPT6] | 2.65 ± 0.1 | 2.99 ± 0.1 | 2.83 ± 0.091 | 2.93 ± 0.056
NKTLTFETETEVTFKNA [FAS1] | 3.15 ± 0.078 | 3.23 ± 0.093 | 3.35 ± 0.049 | 3.28 ± 0.084
MDVDQFDFLDDGTAQLS [YJR042W/NUP85] | 2.46 ± 0.079 | 2.98 ± 0.075 | 2.53 ± 0.063 | 3.32 ± 0.068
FSKFERSKSSHKNERRV [SKI6] | 3.16 ± 0.082 | 3.16 ± 0.08 | 3.25 ± 0.07 | 3 ± 0.064
EATREVFGISKTSSGSY [ITC1] | 3.33 ± 0.09 | 3.09 ± 0.077 | 3.29 ± 0.041 | 3.23 ± 0.068
VSLCAKNMGLVPMKEEN [SSN2] | 1.89 ± 0.086 | 2.38 ± 0.075 | 2.26 ± 0.093 | 1.99 ± 0.11
TSFGQPQSAPNQMGMGT [YOR098C/NUP1] | 2.81 ± 0.094 | 2.83 ± 0.18 | 2.41 ± 0.17 | 2.9 ± 0.15
PRVIEPVYTAQWSATWI [PRP8] | 1.8 ± 0.072 | 2.17 ± 0.054 | 2.13 ± 0.046 | 2.08 ± 0.07
KAAFIRVNGSEFVHKYL [RPT3] | 2.22 ± 0.062 | 2.46 ± 0.073 | 2.77 ± 0.08 | 2.15 ± 0.087
